From article PMC9170038, “Crowdsourced RNA design discovers diverse, reversible, efficient, self-contained molecular switches”

Biological target: T1, MS2 coat protein, dlFG mutant (Escherichia phage MS2, UniProt P03612, del68-81insG)
Test: 4 mM Mg2+; no ligand; RNA-MaP array; 100 mM Tris-HCl pH 7.5, 80 mM KCl, 4 mM MgCl2, 0.1 mg/mL BSA, 1 mM DTT, 0.01 mg/mL yeast tRNA, 0.01% Tween-20; protein 1.5 nM to 3 uM; 37 C (Table S3)
Settings: chain copies: 2; label: tethered by stalled RNA polymerase

Binder	Kd [nM]
Eterna 6417730 (Small Loop Same State NG 3) (ssRNA) RNA: ACAUGAGGAUCUCCCAUGUAAAAUUAGGAUAUAUAACUGCACAUGAGGAUCACCCAUGUUUAACCGUAGAAGGGAUAAAUAAUU	1100
Eterna 7695377 (Same State - Theophylline A) (ssRNA) RNA: UCUUAACUAAAAUAAUGGGAUACCAGUGAUACCAGCCAUAUGCAGGGCCCUUGGCAGCACCCUUGGCAGCCUCGAGUGAUGUUCG	> 3000
Eterna 5988416 (Sensor, turn-off variant 1) (ssRNA) RNA: UCACAAGCUGUGGGUGGUGACAUGAGGAUCACCCAUGUUUUGCUCGUCUUGUGCCGGGCCCGGCGCCCGGGCCCGGC	1080
Eterna 7705565 (Exclusion - FMN A) (ssRNA) RNA: AGACUACCACACUGUCAAUAGACAGUGAACUAGGAUAUGCUGAUAAGCAGAAGGAGUGAUGUUCCUAAAGGUAGUCAAAUAUAAU	> 3000
Eterna 1257 (Exclusion - Tryptophan B) (ssRNA) RNA: CUGUUUUAGUCGGCCGCCACUGCAAGUGAUGUUUGGAGUAUUAUGCCGUUUCUGUCCAUUGAACCCAGGACCGGGACCGGAUCGU	> 3000
Eterna 7709687 (Same State - Tryptophan B) (ssRNA) RNA: UAUUAAGUGACGGCCGCCACUAUGGUGAUUUAUUUGUUUGAGUGAUGUUUUGAUGUUUGAUUUUGUAGGACCGGGUUAUGUGUUA	> 3000
Eterna 1174 (Exclusion - Theophylline B) (ssRNA) RNA: GCUGUCCAGUUCGAUACCAGAGUUAUCGCACUGUAGUGAUAAAGUGAUGUUUUAUCAGUCCUCCCUUGGCAGCGAUGCCCGGCUG	> 3000
Eterna 1188 (Exclusion - Theophylline B) (ssRNA) RNA: AGCUGCCGAAUAGAUACCAGUGUCUUUAGUGAUGUUUCAGAGCUGGCACGAUCAGAAGGUCACCCUUGGCAGCUAGUGCCAGCGU	> 3000
UUUCAGGGCAGUGAUGUUGCCCUCUUU (ssRNA) [Eterna 9 (K4-7bp_control)]	> 3000
Eterna 1521 (Same State - FMN A) (ssRNA) RNA: CGUAAGGAUUGACGACUGCAGAGCAAAAUAAAGGAUAUCGCAGCGUCGAGAAGGUUAUCGUGCGCCAGUGAUGUUGGCGGUAGUC	> 3000
Eterna 5998949 (Sensor, turn-off variant 1) (ssRNA) RNA: UUUCCGGCGCGGGUUUUUUACAUGAGGAUCACCCAUGUCCUCUGCUUGUCUUGUCUUGGGCUUUUUUUGGGUUCGGG	798
Eterna 7720201 (Exclusion - Theophylline B) (ssRNA) RNA: CCUAUCUCAUACGAUACCAGUCUACGAUAUUUUAUCGUUGCCAACACCGAGUGAUGUUCGGACCCUUGGCAGCGUAUGGGAUAGG	> 3000

Biological target: T1, MS2 coat protein, dlFG mutant
Test: 4 mM Mg2+; FMN 200 uM; RNA-MaP array; 100 mM Tris-HCl pH 7.5, 80 mM KCl, 4 mM MgCl2, 0.1 mg/mL BSA, 1 mM DTT, 0.01 mg/mL yeast tRNA, 0.01% Tween-20; protein 1.5 nM to 3 uM; 37 C (Table S3)
Settings: chain copies: 2; label: tethered by stalled RNA polymerase

Binder	Kd [nM]
Eterna 6429692 (Inverted Same State NG 1) (ssRNA) RNA: AUCAUGCUCAAGAAGGACAUGAGGAUCACCCAUGUAGGAUAUUGGGCGGUCACUUCUAGCUUGUGUGUAUCUGAAUACUCCAGG	7.54
Eterna 6429508 (Inverted Exclusion NG 3) (ssRNA) RNA: GGGUGCCCUGCAGAAGCGACAUGAGGAUCACCCAUGUAACGUAGAAGGGCCCGGAACUAAGGUGGGCAGGAUAUACUGUUAGGU	7.24

Biological target: T1, MS2 coat protein, dlFG mutant
Test: 4 mM Mg2+; theophylline 2 mM; RNA-MaP array; 100 mM Tris-HCl pH 7.5, 80 mM KCl, 4 mM MgCl2, 0.1 mg/mL BSA, 1 mM DTT, 0.01 mg/mL yeast tRNA, 0.01% Tween-20; protein 1.5 nM to 3 uM; 37 C (Table S3)
Settings: chain copies: 2; label: tethered by stalled RNA polymerase

Binder	Kd [nM]
Eterna 7634493 (Same State - Theophylline A) (ssRNA) RNA: ACAUGAGGAUCACCCAUGUCUGCCACUGAUACCAGCGGAAGAAAACGCCCUUGGCAGCAGAACAUGAGGAUCACCCAUGUAGGCU	188

Biological target: T1, MS2 coat protein, dlFG mutant
Test: 4 mM Mg2+; miR-208a RNA 100 nM (AU…UUGU); RNA-MaP array; 100 mM Tris-HCl pH 7.5, 80 mM KCl, 4 mM MgCl2, 0.1 mg/mL BSA, 1 mM DTT, 0.01 mg/mL yeast tRNA, 0.01% Tween-20; protein 1.5 nM to 3 uM; 37 C (Table S3)
Settings: chain copies: 2; label: tethered by stalled RNA polymerase

Binder	Kd [nM]
Eterna 10033 (Sensor v3, turn-off variant 2) (ssRNA) RNA: ACUAGCGAAAUGCUCGUCUUAUUUUUGUAGAGGUUCUAAACAUGAGGAUCACCCAUGUAGUGGUUUUUGUGGAGGUA	265
